According to patent US20150098945A1 (Daiichi Sankyo, published 2015):

Molecular target: T1, full-length human ROBO4 (pCI-hROBO4-transfected HEK293/HEK293T cells) (human, UniProt Q8WZ75 28-1007)
T1 sequence: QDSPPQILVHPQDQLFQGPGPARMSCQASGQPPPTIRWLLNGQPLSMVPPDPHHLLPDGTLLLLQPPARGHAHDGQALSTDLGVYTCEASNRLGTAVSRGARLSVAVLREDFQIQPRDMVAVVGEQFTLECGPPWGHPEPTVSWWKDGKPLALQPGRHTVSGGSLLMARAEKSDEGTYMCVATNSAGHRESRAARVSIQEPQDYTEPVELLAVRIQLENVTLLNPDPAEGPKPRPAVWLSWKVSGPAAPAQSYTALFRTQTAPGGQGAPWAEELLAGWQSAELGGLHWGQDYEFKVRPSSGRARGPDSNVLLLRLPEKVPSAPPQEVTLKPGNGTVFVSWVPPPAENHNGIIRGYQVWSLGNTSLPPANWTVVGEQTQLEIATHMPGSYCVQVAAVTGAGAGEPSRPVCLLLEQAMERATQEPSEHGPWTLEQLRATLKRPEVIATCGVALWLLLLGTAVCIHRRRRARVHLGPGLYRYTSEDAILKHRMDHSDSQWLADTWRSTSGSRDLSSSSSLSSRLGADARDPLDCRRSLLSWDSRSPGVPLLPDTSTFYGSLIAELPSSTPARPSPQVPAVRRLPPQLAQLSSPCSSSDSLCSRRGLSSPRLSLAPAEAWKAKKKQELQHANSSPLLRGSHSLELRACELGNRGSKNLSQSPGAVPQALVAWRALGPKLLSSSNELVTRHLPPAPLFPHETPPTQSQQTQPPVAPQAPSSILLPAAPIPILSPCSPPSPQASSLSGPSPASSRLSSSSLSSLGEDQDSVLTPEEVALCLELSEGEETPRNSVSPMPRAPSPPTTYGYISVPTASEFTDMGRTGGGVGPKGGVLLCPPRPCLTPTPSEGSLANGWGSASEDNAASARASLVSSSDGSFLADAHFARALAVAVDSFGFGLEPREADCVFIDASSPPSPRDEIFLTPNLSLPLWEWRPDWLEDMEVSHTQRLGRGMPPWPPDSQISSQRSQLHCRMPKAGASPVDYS
Test: flow cytometry, HEK293 cells transfected with pCI-hROBO4, antibody at 10 µg/mL, anti-mouse IgG FITC; control histogram IgG (Mouse IgG2a)
Procedure: HEK293 cells were inoculated at a concentration of 1.5×10⁶ cells/dish to a 60-mm dish (manufactured by Corning Inc.) and cultured overnight in a DMEM medium containing 10% FBS at 37° C. under 5% CO₂ conditions. On the next day, the HEK293 cells were transfected with pCI-hROBO4, pCI-mROBO4, pCI-raROBO4, pCI-FLAG-cynoROBO4-1, pCI-FLAG-cynoROBO4-2, pCI-hROBO1, pCI-hROBO2, or pCI-hROBO3 using FuGENE6 Transfection Reagent and further cultured overnight at 37° C. under 5% CO₂ conditions. On the next day, the expression vector-transfected cells were treated with TrypLE Express (manufactured by Life Technologies Corp.), washed with PBS containing 5% FBS, and then suspended in PBS containing 5% FBS. The obtained cell suspension was used in flow cytometry analysis.
Each cell suspension prepared in 4)-3-1 was centrifuged, and the supernatant was removed. Then, MAb1 or a negative control Mouse IgG2a was added at a concentration of 10 μg/mL to 2×10⁵ expression vector-transfected cells, and the resulting suspension was left standing at 4° C. for 1 hour. […] Data was analyzed using Flowjo. The histogram of FITC fluorescence intensity was prepared. The antibody was determined to bind in a cross-species manner when the histogram of MAb1 was shifted to a stronger fluorescence intensity region compared with the histogram of the negative control Mouse IgG2a.

B1: anti-ROBO4 mouse monoclonal antibody MAb1 (antibody, mouse IgG1, V domains shown)
VH: EVQLVESGGGLVKPGGSLKLSCAASGFTFSTYAMSWVRQTPEKRLEWVATISNGGTYTYYPDSVKGRFTISRDNAENTLYLQMSSLRSEDTAMYFCARLIYYDYLDYWGHGTTLTVSS
VL: DAVMTQTPLSLPVSLGDQASISCRSSQSLENSNGNTYLNWYFQKPGQSPQLLIYRVSNRFSGVLDRFSGSGSGTDFTLKISRVEAEDFGVYFCLQVTHVPWTFGGGTKLEIKR
notes: Mouse IgG1 (gamma1), kappa light chain, purified from hybridoma supernatant; also called parent antibody MAb1
**Q.** Does B1 bind?
**A.** binds
